Like-named read-outs stand apart in the source and are kept apart here.
What was measured:
Laminin-111 = assay: ELISA
[1] = target: Protective antigen (Bacillus anthracis) (UniProt P13423); conditions: cited from earlier work
[2] = target: Protective antigen (Bacillus anthracis) (UniProt P13423); conditions: cited from earlier work; remark: listed apart in the source

biotinylated CMG2-AviTag construct (capillary morphogenesis gene 2, anthrax toxin receptor 2) (from UniProt P58335 34-489)
Kd (Laminin-111): 500 nM

TEM8 (from UniProt Q9H6X2)
Kd [1]: 10 nM

CMG2 (from UniProt P58335)
Kd [2]: 0.2 nM
